The text below walks through data of patent US20250066476A1 (TENEOONE, published 2025).

Assay [1] has as its target T1, human PSMA (Prostate Specific Membrane Antigen, Glutamate Carboxypeptidase II) (human, UniProt Q04609 1-750).
T1 construct: whole, on cells; the cell line is named under assay; also called FOLH1
Put plainly: flow cytometry on LNCaP cells. The procedure: Briefly, 50,000 target cells were stained with a dilution series of purified UniAbs™ for 30 minutes at 4° C. Following incubation, the cells were washed twice with flow cytometry buffer (1×PBS, 1% BSA, 0.1% NaN₃) and stained with goat F(ab′)₂ anti-human IgG conjugated to R-phycoerythrin (PE) (Southern Biotech, cat. #2042-09) to detect cell-bound antibodies. After a 20-minute incubation at 4° C., the cells were washed twice with flow cytometry buffer and the mean fluorescence intensity (MFI) was measured by flow cytometry. The MFI of cells stained with secondary antibody alone were used for determination of background signal and binding of each antibody was converted to fold over background. Binding to cynomolgus PSMA positive cells was determined using the same protocol with the following modifications: the target cells were from Freestyle 293-F cells (ThermoFisher R79007) transiently transfected to express the extracellular domain of cynomolgus PSMA. In some experiments EC50 values were calculated using GraphPad Prism 7.
Column 1 indicates the clone ID of the HCAb. Column 2 indicates binding to LNCaP cells measured as fold over the background MFI signal.

Assay [2] addresses T2, human B-cell maturation antigen (BCMA) (human, UniProt Q02223 1-54, limits assumed).
T2 construct: also called CD269; TNFRSF17
T2 sequence (looked up): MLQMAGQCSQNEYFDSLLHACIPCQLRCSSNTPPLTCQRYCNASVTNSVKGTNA
In words: ELISA protein and cell-binding assays. Background: An ELISA detects its analyte on a solid surface through an enzyme-linked reagent.

T1 sequence (Q04609 whole entry): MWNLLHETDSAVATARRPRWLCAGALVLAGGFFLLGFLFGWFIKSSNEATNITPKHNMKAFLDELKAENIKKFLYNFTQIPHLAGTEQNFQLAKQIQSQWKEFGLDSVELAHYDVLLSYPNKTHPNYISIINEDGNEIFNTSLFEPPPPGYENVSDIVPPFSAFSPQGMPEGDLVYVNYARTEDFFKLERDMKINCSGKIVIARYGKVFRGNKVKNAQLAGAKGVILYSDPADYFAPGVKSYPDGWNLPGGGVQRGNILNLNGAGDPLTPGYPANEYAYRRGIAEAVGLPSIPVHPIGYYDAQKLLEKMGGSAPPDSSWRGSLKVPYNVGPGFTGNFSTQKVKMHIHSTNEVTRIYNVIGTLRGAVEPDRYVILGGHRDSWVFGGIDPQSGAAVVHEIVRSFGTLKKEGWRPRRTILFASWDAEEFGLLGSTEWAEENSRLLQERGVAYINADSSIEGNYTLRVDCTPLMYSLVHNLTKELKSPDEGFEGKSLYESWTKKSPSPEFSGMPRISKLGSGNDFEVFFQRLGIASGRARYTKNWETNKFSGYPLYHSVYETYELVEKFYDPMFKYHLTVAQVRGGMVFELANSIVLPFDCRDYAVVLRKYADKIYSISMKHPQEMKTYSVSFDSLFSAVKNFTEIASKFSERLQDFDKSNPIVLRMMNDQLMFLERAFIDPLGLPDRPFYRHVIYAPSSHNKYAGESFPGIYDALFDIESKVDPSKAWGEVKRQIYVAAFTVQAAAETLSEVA

B1: anti-PSMA heavy-chain antibody clone ID 345493 (antibody, V domains shown)
VH: QVQLVESGGGVVQPGRSLRLSCAASGFSFSRYGMHWVRQAPGKGLEWVAVIWYDGSNRYYADSVKGRFTISRDNSKNTLYLQMNSLRAEDTAVYYCAREPRIGYYYESSGYYSLDYRGQGTLVTVSS
notes: heavy chain-only antibody (UniAb/HCAb)
Regarding B1, in assay [1], the “fold over the background MFI signal” value turned out to be 101 fold over background MFI.

B2: anti-PSMA heavy-chain antibody clone ID 325932 (antibody, V domains shown)
VH: QVQLVESGGGVVQPGRSLRLSCAASGFSFSSYGMHWVRQAPGKGLEGVAVIWYDGSNRYYADSVKGRFTISRDNSKNTLYLQMNSLRAEDTAVYYCAREPRIGYYYESSGYYSLDYRGQGTLVTVSS
notes: as for B1
Regarding B2, the “fold over the background MFI signal” value in assay [1] is 64 fold over background MFI.

B3: anti-PSMA heavy-chain antibody clone ID 345505 (antibody, V domains shown)
VH: QVQLVESGGGVVQPGRSLRLSCAASGFTFISYGMHWVRQAPGKGLEGVAVIWYDGSNRYYADSVKGRFTISRDNSKNTLYLQMNSLRAEDTAVYYCAREPRIGYYYESSGYYSLDYRGQGTLVTVSS
notes: as for B1
As for B3, in assay [1], the “fold over the background MFI signal” value amounted to 59 fold over background MFI.

B4: anti-PSMA heavy-chain antibody clone ID 345510 (antibody, V domains shown)
VH: QVQLVESGGGVVQPGRSLRLSCAASGFSFSSYGMHWVRQAPGKGLEWVAVIWYDGSNKYYADSVKGRFTISRDNSKNTMYLQMNSLRAEDTAVYYCAREPRIGYYYESSGYYSLDYRGQGTLVTVSS
notes: as for B1
For B4, in assay [1], the “fold over the background MFI signal” value stood at 13 fold over background MFI.

B5: anti-PSMA heavy-chain antibody clone ID 345509 (antibody, V domains shown)
VH: QVQLVESGGGLVQPGGSLRLSCAASGFSFSSYGMHWVRQAPGKGLEGVAVIWYDGSNKYYADSVKGRFTISRDNSKNTMYLQMNSLRAEDTAVYYCAREPRIGYYYESSGYYSLDYRGQGTLVTVSS
notes: as for B1
B5: the “fold over the background MFI signal” value in assay [1] stood at 37 fold over background MFI.

B6: anti-PSMA heavy-chain antibody clone ID 345508 (antibody, V domains shown)
VH: QVQLVESGGGVVQPGRSLRLSCAASGFSFSSYGMHWVRQAPGKGPEWVAVIWYDGSNRYYADSVKGRFTISRDNSKNTLYLQMNSLRAEDTAVYYCAREPRIGYYYESSGYYSLDYRGQGTLVTVSS
notes: as for B1
Consider B6, for which, in assay [1], the “fold over the background MFI signal” value is 55 fold over background MFI.

B7: anti-PSMA heavy-chain antibody clone ID 345497 (antibody, V domains shown)
VH: QVQLVESGGGVVQPGRSLRLSCAASGFSFSRYGMHWVRQAPGKGLEGVAVIWYDGSNRYYADSVKGRFTISRDNSKNTLYLQMNSLRAEDTAVYYCAREPRIGYYYESSGYYSLDYRGQGTLVTVSS
notes: heavy chain-only antibody (UniAb/HCAb); also called HCAb 345497
B7: the “fold over the background MFI signal” value in assay [1] stood at 112 fold over background MFI.

B8: anti-BCMA heavy chain antibody clone ID 308837 (antibody, V domains shown)
VH: EVQLLESGGGLVQPGGSLRLSCAASGFTVSSYGMSWVRQAPGKGPEWVSGIRGSDGSTYYADSVKGRFTISRDNATNTLYLQMNSLRAEDTAVYYCAKQGGNDGPFDYRGQGTLVTVSS
notes: heavy chain-only antibody (UniAb)
As for B8, the binding result in assay [2] is reported as “binds”.

B9: anti-BCMA heavy chain antibody clone ID 308806 (antibody, V domains shown)
VH: EVQLLESGGGLVQPGGSLRLSCAASGFTISSYGMSWVRQAPGKGVEWVSGIRGSDGTTYYADSVKGRFTISRDSSRNTLYLQMNSLRAEDTAVYYCAKQGGNDGPFDHRGQGTLVTVSS
notes: as for B8
As for B9, in assay [2], the binding result is “binds”.

B10: anti-BCMA heavy chain antibody clone ID 308912 (antibody, V domains shown)
VH: EVQLLESGGGLVQPGGSLRLSCAASGFTVSSYGMSWVRQPPGKGMEWVSGIRGSDGSTYYADSVKGRFTISRDNAKNTLYLQMNSLRAEDTAVYYCAKQGGNDGPFDYRGQGTLVTVSS
notes: as for B8
For B10, the binding result in assay [2] is reported as “binds”.

B11: anti-BCMA heavy chain antibody clone ID 308902 (antibody, V domains shown)
VH: EVQLLESGGGLVQPGGSLRLSCAASGFTVSSYGMSWVRQAPGKGPEWVSGIRGSDGSTYYADSVKGRFTISRDNSKNTLYLQMNSLRAEDTAVYYCAKQGENDGPFDHRGQGTLVTVSS
notes: as for B8
Regarding B11, the binding result in assay [2] was “binds”.

B12: anti-BCMA heavy chain antibody clone ID 308636 (antibody, V domains shown)
VH: EVQVLESGGGLVQPGGSLRLSCAASGFTVSSYGMSWVRQPPGKGMEWVSGIRGSDGSTFYADSVKGRFTISRDNATNTLYLQMNSLRAEDTAVYYCAKQGGNDGPFDYRGQGTLVTVSS
notes: as for B8
On to B12, for which the binding result in assay [2] is given as “binds”.

B13: anti-BCMA heavy chain antibody clone ID 308635 (antibody, V domains shown)
VH: EVQLLESGGGLVQAGGSLRLSCAASGFTVSSYGMSWVRQAPGKGPEWVSGIRGSDGSTYYADSVKGRFTISRDNSKNTLYLQMNSLRAEDTAVYHCAKQGENDGPFDYRGQGTLVTVSS
notes: as for B8
With B13, in assay [2], the binding result is given as “binds”.
